For 31 molecules, Kd results are on record in paper PMC10786891, “Massively parallel profiling of RNA-targeting CRISPR-Cas13d”.

Numbering of substitutions follows the chain as printed. Names may count otherwise.

The labels stand for the following.
T1: EsCas13d, nuclease-dead (Eubacterium siraeum, UniProt B0MS50, R295A;H300A;R849A;H854A)
T1 sequence: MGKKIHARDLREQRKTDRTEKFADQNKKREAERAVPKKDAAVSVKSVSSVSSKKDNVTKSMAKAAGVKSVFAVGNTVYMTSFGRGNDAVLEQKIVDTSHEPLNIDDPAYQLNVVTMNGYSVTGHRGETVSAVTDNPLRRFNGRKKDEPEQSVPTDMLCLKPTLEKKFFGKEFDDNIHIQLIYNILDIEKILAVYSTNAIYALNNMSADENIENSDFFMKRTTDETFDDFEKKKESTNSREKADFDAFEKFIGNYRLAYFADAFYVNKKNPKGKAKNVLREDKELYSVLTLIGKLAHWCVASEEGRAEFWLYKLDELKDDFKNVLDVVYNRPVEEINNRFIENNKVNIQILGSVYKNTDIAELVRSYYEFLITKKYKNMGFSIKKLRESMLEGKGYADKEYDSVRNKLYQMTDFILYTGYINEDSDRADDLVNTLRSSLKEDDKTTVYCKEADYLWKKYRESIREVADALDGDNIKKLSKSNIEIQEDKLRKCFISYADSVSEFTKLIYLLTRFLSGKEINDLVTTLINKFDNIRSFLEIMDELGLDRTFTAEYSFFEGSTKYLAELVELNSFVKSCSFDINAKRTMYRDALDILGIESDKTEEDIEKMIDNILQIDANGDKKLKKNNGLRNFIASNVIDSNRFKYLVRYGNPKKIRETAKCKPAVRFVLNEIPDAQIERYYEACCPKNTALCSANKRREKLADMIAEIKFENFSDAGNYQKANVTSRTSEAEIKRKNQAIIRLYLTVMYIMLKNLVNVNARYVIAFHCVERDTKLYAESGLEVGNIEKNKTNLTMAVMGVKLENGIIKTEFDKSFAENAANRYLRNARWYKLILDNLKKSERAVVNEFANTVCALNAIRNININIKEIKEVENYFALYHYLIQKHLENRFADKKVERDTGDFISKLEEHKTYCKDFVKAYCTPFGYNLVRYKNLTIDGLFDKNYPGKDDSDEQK

B1: target 1 C2G,C7G (mixed)
RNA 1: CACCCGUGCAAAAAUGCAGGGGUCUAAAACUGAGCGGAUAACCUCUCUAUGG
RNA 2: GGGAAUGGAUCCACAUCUACGAAUUCGUACCAUAGAGAGGUUAUGCGCUGACCGAGAUCGGAAGAGCACACGU
B2: target 1 insU 3' of 20,insC 3' of 20 (mixed)
RNA 1: B1 RNA 1
RNA 2: GGGAAUGGAUCCACAUCUACGAAUUCGUACCAUCUAGAGAGGUUAUCCGCUCACCGAGAUCGGAAGAGCACACGU
B3: target 3 insU 3' of 1 (mixed)
RNA 1: CACCCGUGCAAAAUUGCAGGGGUCUAAAACGACCUGAAUAUUUCAGAUCAAA
RNA 2: GGGAAUGGAUCCACAUCUACGAAUUCGUUUUUGAUCUGAAAUAUUCAGGUCUUGCAGAUCGGAAGAGCACACGU
B4: target 3 insU 3' of 4,insU 3' of 3 (mixed)
RNA 1: B3 RNA 1
RNA 2: GGGAAUGGAUCCACAUCUACGAAUUCGUUUUUGAUCUGAAAUAUUCAGUGUUCUGCAGAUCGGAAGAGCACACGU
B5: target 3 insA 3' of 6,insA 3' of 2 (mixed)
RNA 1: B3 RNA 1
RNA 2: B4 RNA 2 with G48A, U49G, U52A
B6: target 3 insA 3' of 4,insU 3' of 3 (mixed)
RNA 1: B3 RNA 1
RNA 2: B4 RNA 2 with U49A
B7: target 3 insG 3' of 6,insG 3' of 1 (mixed)
RNA 1: B3 RNA 1
RNA 2: B4 RNA 2 with A47G, G48A, U49G, U52C, C53G
B8: target 3 insU 3' of 5,insU 3' of 5 (mixed)
RNA 1: B3 RNA 1
RNA 2: B4 RNA 2 with G48U, U51G
B9: target 3 U2A (mixed)
RNA 1: B3 RNA 1
RNA 2: GGGAAUGGAUCCACAUCUACGAAUUCGUUUUUGAUCUGAAAUAUUCAGGACUGCAGAUCGGAAGAGCACACGU
B10: target 3 G19C,U20G (mixed)
RNA 1: B3 RNA 1
RNA 2: B9 RNA 2 with U32G, G33C, A50U
B11: target 3 insU 3' of 4,insG 3' of 2 (mixed)
RNA 1: B3 RNA 1
RNA 2: B4 RNA 2 with U52G
B12: target 3 U8C,U22C (mixed)
RNA 1: B3 RNA 1
RNA 2: B9 RNA 2 with U30C, U44C, A50U
B13: target 3 insU 3' of 16,insC 3' of 4 (mixed)
RNA 1: B3 RNA 1
RNA 2: GGGAAUGGAUCCACAUCUACGAAUUCGUUUUUGAUCUUGAAAUAUUCAGCGUCUGCAGAUCGGAAGAGCACACGU
B14: target 3 insG 3' of 6,insA 3' of 1 (mixed)
RNA 1: B3 RNA 1
RNA 2: B4 RNA 2 with A47G, G48A, U49G, U52C, C53A
B15: target 3 A11C,A18C (mixed)
RNA 1: B3 RNA 1
RNA 2: B9 RNA 2 with A34C, A41C, A50U
B16: target 3 U2A,C6G (mixed)
RNA 1: B3 RNA 1
RNA 2: B9 RNA 2 with C46G
B17: target 3 insA 3' of 7,insC 3' of 5 (mixed)
RNA 1: B3 RNA 1
RNA 2: B4 RNA 2 with C46A, A47C, G48A, U49C, U51G
B18: target 3 insG 3' of 6,insC 3' of 2 (mixed)
RNA 1: B3 RNA 1
RNA 2: B4 RNA 2 with A47G, G48A, U49G, U52C
B19: target 3 insG 3' of 9,insG 3' of 8 (mixed)
RNA 1: B3 RNA 1
RNA 2: B4 RNA 2 with U44G, C46G, A47U, G48C, U49A, U51G
B20: target 3 insU 3' of 13,insG 3' of 2 (mixed)
RNA 1: B3 RNA 1
RNA 2: B13 RNA 2 with U38G, G39A, A40U, C50G, G51U, U52G
B21: target 3 insC 3' of 8,insU 3' of 5 (mixed)
RNA 1: B3 RNA 1
RNA 2: B4 RNA 2 with U45C, C46U, A47C, G48A, U51G
B22: target 3 insG 3' of 6,insU 3' of 1 (mixed)
RNA 1: B3 RNA 1
RNA 2: B4 RNA 2 with A47G, G48A, U49G, U52C, C53U
B23: target 3 G4C,A18G (mixed)
RNA 1: B3 RNA 1
RNA 2: B9 RNA 2 with A34G, G48C, A50U
B24: target 3 complement block 1-6 (mixed)
RNA 1: B3 RNA 1
RNA 2: B9 RNA 2 with C46G, A47U, G48C, G49C, C51G
B25: target 3 U8G,A18G (mixed)
RNA 1: B3 RNA 1
RNA 2: B9 RNA 2 with A34G, U44G, A50U
B26: target 3 del6,del22 (mixed)
RNA 1: B3 RNA 1
RNA 2: GGGAAUGGAUCCACAUCUACGAAUUCGUUUUGAUCUGAAAUAUUAGGUCUGCAGAUCGGAAGAGCACACGU
B27: target 3 U2G,G3A (mixed)
RNA 1: B3 RNA 1
RNA 2: B9 RNA 2 with G49A, A50G
B28: target 3 complement block 2-7 (mixed)
RNA 1: B3 RNA 1
RNA 2: B9 RNA 2 with U45A, C46G, A47U, G48C, G49C
B29: target 3 insG 3' of 9,insG 3' of 2 (mixed)
RNA 1: B3 RNA 1
RNA 2: B4 RNA 2 with U44G, C46U, A47C, G48A, U49G, U52G
B30: target 3 insG 3' of 8,insU 3' of 4 (mixed)
RNA 1: B3 RNA 1
RNA 2: B4 RNA 2 with U45G, C46U, A47C, G48A, U49G, G50U, U51G
B31: target 3 G4A,A11C (mixed)
RNA 1: B3 RNA 1
RNA 2: B9 RNA 2 with A41C, G48A, A50U

The data set concerns the target T1, EsCas13d, nuclease-dead. Put plainly: crRNA (strand 1, pre-loaded); Mg2+; 40 mM Tris-HCl pH 7.5, 150 mM NaCl, 6 mM MgCl2, 1 mM DTT, 0.1% Tween-20, 0.2 mg/ml BSA; 25 C; 10 min per concentration, then washed. To be noted: tags: His6-TwinStrep-SUMO cleaved; N-terminal SNAP kept (SNAP-Surface 488); label: 3' end held by stalled T7 RNA polymerase.
As for B1, the Kd (commonly the equilibrium constant for the complex coming apart) is 8.9 ± 0.4 nM.

Take B2: the Kd stood at 75 ± 13 nM. Against the preceding molecule, the Kd is about 8.4-fold higher.

Regarding B3, the Kd was 85.5 ± 18.5 nM.

With B4, the Kd worked out at 15.2 ± 1.8 nM. Compared with the last molecule, the Kd is about 5.6-fold lower.

Molecule B5 came in with a Kd of 4.2 ± 0.55 nM.

As to B6, the Kd stood at 72 ± 18.5 nM.

With B7, the affinity, expressed as Kd, was 25 ± 10.5 nM.

B8 yielded a Kd of 3.87 ± 0.32 nM.

The molecule B9 showed a Kd of 24.3 ± 1.8 nM.

Take B10: the Kd was ~49 nM.

B11: the Kd is 19.5 ± 2.35 nM.

In turn, B12 registered a Kd of 46 ± 8.5 nM. This Kd is about 2.4-fold higher than that of the molecule before.

For B13, binding was characterised by a dissociation constant (Kd) of 84.5 ± 27 nM. Compared with the last molecule, the Kd is about 1.8-fold higher.

Turning to B14, binding was put at a Kd of 76 ± 34 nM.

In turn, B15 had a Kd of 39 ± 4 nM.

For the molecule B16, the Kd was 37 ± 5 nM.

Turning to B17, the Kd was 28.2 ± 1.85 nM.

B18 registered a Kd of 74 ± 27 nM.

B19 showed a Kd of 57 ± 6 nM.

Molecule B20 gave a Kd of 35.5 ± 7 nM.

In the case of B21, the Kd turned out to be 79.5 ± 15 nM.

In turn, B22 returned a Kd of 56.5 ± 15 nM.

With B23, binding was characterised by a dissociation constant (Kd) of 34.4 ± 3.95 nM.

For the molecule B24, the equilibrium dissociation constant (Kd) is 28.5 ± 4.5 nM.

B25 came in with a Kd of 72.5 ± 14.5 nM.

Regarding B26, the Kd came out at 19.4 ± 1.9 nM. This Kd is about 3.7-fold lower than that of the molecule before.

In turn, B27 registered a Kd of 44 ± 6.5 nM.

On to B28, for which binding was characterised by a dissociation constant (Kd) of 54.5 ± 7 nM.

The molecule B29 returned a Kd of 63.5 ± 14.5 nM.

B30 displayed a Kd of 21.2 ± 4.45 nM.

Take B31: the Kd was 48.5 ± 11.5 nM.
